The source of these data is patent publication US20250115671A1 (BEIGENE, published 2025).

The target of test [1] is T1, human CCR8 (human, UniProt P51685 1-355). The test is described as follows: cell-based or functional assay.
Test [2] deals with T1, human CCR8. The test is described as follows: flow cytometry, Jurkat-human CCR8 cells. As for the experimental part: To evaluate the binding activity of anti-CCR8 antibodies to bind CCR8 expressed on living cells, Jurkat cells were engineered to over-express human CCR8. Jurkat-human CCR8 cells were seeded in 96-well plate and incubated with a series of dilutions of anti-CCR8 antibodies. Goat anti-human IgG was used as secondary antibody to detect antibody binding to the cell surface. EC50 values for dose-dependent binding to human CCR8 were determined by fitting the dose-response data to the four-parameter logistic model with GraphPad Prism. As shown in Table 4 and FIG. 3 the CCR8 antibodies had high binding affinity to human CCR8.
In general terms: A flow cytometer gives signals particle by particle.

Test [3] concerns the target T2, mouse CCR8 (mouse, UniProt P56484 1-353).
T2 construct: Full length, transiently expressed on Expi293 cells; also called muCCR8; CCR8-mo8
T2 sequence: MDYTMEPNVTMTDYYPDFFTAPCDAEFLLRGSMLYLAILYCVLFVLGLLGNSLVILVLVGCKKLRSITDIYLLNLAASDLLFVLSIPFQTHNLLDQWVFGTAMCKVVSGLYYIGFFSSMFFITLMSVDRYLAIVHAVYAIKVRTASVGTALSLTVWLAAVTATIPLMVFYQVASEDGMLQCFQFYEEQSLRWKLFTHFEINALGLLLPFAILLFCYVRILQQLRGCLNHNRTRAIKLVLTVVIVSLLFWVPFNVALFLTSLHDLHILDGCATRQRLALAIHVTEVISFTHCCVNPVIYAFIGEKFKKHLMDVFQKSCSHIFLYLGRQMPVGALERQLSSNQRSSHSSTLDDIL
The test is described as follows: flow cytometry on transfected Expi293 cells, serial dilution. As for the experimental part: The plasmids containing these chimeric CCR8 constructs, and human CCR8 (CCR8-hu8) and mouse CCR8 (CCR8-mo8) as control, were used to transfect Expi293™ cells for transient protein expression, after which cells were incubated with a serial dilution of the purified Ch305 as well as a reference antibody 10A11 from Shionogi (US 2022/0064312 A1). The binding of each construct was evaluated detection with Alexa Fluor 647 Rabbit Anti-Human IgG (Cat.: 309-605-008 Jackson ImmunoResearch). […] In addition, replacing the human CCR8 N-terminal region with mouse CCR8 N-terminal (CCR8_Ch1) also weakly impairs the affinity, which means human CCR8 N-terminal contributes to the binding activity of human CCR8 with Ch305. In the meanwhile, substituting mouse CCR8 N-terminal with human CCR8 N-terminal (CCR8_Ch5) rescues the binding activity of murine CCR8 with Ch305 to some extent much weaker than the binding activity of wild type human CCR8 to Ch305, which means human CCR8 N-terminal contributes but weakly or partly to the binding activity of human CCR8 with Ch305. […] In comparison, the reference antibody 10A11 binds to the N-terminal region of CCR8 only and it has no binding to ECL1, ECL2 and ECL3, that is, the epitope of 10A11 on human CCR8 locates only on N-terminal of human CCR8 (FIG. 9B).

Test [4] concerns the target T1, human CCR8. The test is described as follows: flow cytometry, 293T-huCCR8 cells. The text has this: (§1) After washing twice with FACS buffer, cells were resuspended with FACS buffer and acquired on a Beckton Dickinson LSR Fortessa™. Titration curves were generated using sigmoid dose-response of nonlinear fit from GraphPad, and the EC50s of representative antibodies are shown in Table 2.

The target of test [5] is T3, Cynomolgus Monkey CCR8 (cynomolgus monkey, UniProt O97665 1-356 (rhesus entry)).
T3 construct: also called cyno CCR8; cynoCCR8
T3 sequence (O97665 other isoform, or with tags, fused parts or gaps): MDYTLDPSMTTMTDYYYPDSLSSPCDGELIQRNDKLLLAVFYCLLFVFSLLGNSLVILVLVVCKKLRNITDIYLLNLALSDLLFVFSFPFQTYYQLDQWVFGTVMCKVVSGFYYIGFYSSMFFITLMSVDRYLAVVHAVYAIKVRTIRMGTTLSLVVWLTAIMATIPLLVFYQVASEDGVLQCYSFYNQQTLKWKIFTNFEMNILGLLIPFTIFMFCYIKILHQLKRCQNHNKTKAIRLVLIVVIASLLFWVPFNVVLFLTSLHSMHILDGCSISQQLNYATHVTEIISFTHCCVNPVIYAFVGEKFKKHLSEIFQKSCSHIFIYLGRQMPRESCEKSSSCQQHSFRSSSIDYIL
The test is described as follows: flow cytometry, 293T-cynoCCR8 cells.
Text: as §1

The target in test [6] is T4, human CCR8 N-terminal domain-mouse Fc tag fusion protein (human (CCR8 part), mouse IgG2a Fc).
T4 construct: also called huCCR8-N-mIgG2a; human CCR8 N-terminal protein
T4 chain: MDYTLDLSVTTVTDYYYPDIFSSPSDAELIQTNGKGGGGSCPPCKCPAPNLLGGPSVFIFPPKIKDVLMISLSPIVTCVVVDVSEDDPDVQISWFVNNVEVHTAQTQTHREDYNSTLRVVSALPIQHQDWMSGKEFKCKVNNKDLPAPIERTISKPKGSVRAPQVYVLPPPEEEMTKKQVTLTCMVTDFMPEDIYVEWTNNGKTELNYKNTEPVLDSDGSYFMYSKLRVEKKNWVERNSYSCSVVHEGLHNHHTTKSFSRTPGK
The test is described as follows: ELISA, plate coated with human CCR8 N-terminal domain-Fc fusion. The method, then:
To determine whether anti-CCR8 antibodies bind to the N-terminal domain of human CCR8, ELISA plates were coated with human CCR8 N-terminal domain-mouse Fc tag fusion protein (SEQ ID NO: 28 and 29) overnight at 4° C. After washing and blocking, serially diluted anti-CCR8 antibodies were added to plates and incubated for 1 hour at room temperature. After washing, diluted HRP goat anti-human IgG Fc or HRP goat anti-mouse kappa chain (for 433H) secondary antibodies were added to plates and incubated for 45 minutes at room temperature. After washing, TMB substrate was added to plates for developing and then stopped by adding TMB substrate stop solution. The absorbance was read at 450 nm using a plate reader. […] It is a non CCR8 N-terminal loop binder.
In general terms: In an ELISA, binding on a coated surface is turned into a signal by an enzyme label.

One may read the EC50 as the concentration needed to bring the measured effect to its halfway point.

B1: Ch305 (antibody, V domains shown)
VH: QVQMKQSGPSLVQPSQSLSITCTVSGFSLTSYGVHWVRQSPGKGLEWLGVIWRGGTTDYNAAFMSRLSFTKDSSKSQVFFKLNSLQADDTAIYYCAKNRVTTVVAPNFYAMDYWGQGTSVTVSS
VL: DIVMTQSPSSLAVSVGEKVTMSCKSSQSLLYSGNQKNYLAWYQQKPGQSPKLLIYWASTRKSGVPDRLTGSGSGTDFTLTISSVKAEDLAAYYCQQYYTYPLTFGAGTRLEIK
Consider B1, for which the “IC50 (nM), ligand blocking activity (PathHunter beta-arrestin)” value in test [1] turned out to be 5.9 nM. Besides, the EC50 amounted to 9.37 nM in test [2], 3.67 nM in test [4], 4.1 nM in test [5] and 5.01 nM in test [6]. In test [3], the binding result was “no binding”.
